Six substances from US20120316071A1 can be followed below.

Experiment [1] deals with rHuman Notch-1/Fc Chimera, CF (R&D Systems Cat#3647-TK) (human) (UniProt P46531). Nature of the experiment: ECL multispot (MSD) binding assay, antigen spotted on plate, Fab in solution; blank spot 306.
Experiment [2] has as its target rHuman EGF R/Fc Chimera, CF (R&D Systems Cat#344-ER) (human) (UniProt P00533). Described as above.
The target in experiment [3] is rHuman P-Cadherin/Fc Chimera, CF (R&D Systems Cat#861-PC) (human) (UniProt P22223). Described as above.
The target of experiment [4] is rHuman HGF R/c-MET/Fc Chimera, CF (R&D Systems Cat#358-MT/CF) (human) (UniProt P08581). The experiment is described as above.
Experiment [5] concerns the target rHuman IGF-1 sR, CF (R&D Systems Cat#391-GR) (human) (UniProt P08069). The experiment is described as above.
Experiment [6] has as its target rHuman ErbB2/Fc Chimera, CF (R&D Systems Cat#1129-ER) (human) (UniProt P04626). Described as above.
The target of experiment [7] is rHuman CD44/Fc Chimera, CF (R&D Systems Cat#3660-CD) (human) (UniProt P16070). The description is as above.
Experiment [8] deals with rHuman Erythropoietin R/Fc Chimera (human) (UniProt P19235). Nature of the experiment: ECL (MSD) multispot assay, antigen spotted; blank spot of this row 284.
Experiment [9] addresses rHuman HGF R/c-MET/Fc Chimera (human) (UniProt P08581). The description is as above.
Experiment [10] deals with rHuman IGF-1 sR (insulin-like growth factor-1 soluble receptor) (human) (UniProt P08069). The experiment is described as above.
Experiment [11] addresses rHuman Notch-1/Fc Chimera, CF (R&D Systems Cat#3647-TK) (human) (UniProt P46531). In words: ECL multispot (MSD) binding assay, antigen spotted on plate, Fab in solution; blank spot 349.
Experiment [12] concerns the target rHuman EGF R/Fc Chimera, CF (R&D Systems Cat#344-ER) (human) (UniProt P00533). The description is as above.
Experiment [13] deals with rHuman P-Cadherin/Fc Chimera, CF (R&D Systems Cat#861-PC) (human) (UniProt P22223). Described as above.
Experiment [14] has as its target rHuman HGF R/c-MET/Fc Chimera, CF (R&D Systems Cat#358-MT/CF) (human) (UniProt P08581). The description is as above.
The target in experiment [15] is rHuman IGF-1 sR, CF (R&D Systems Cat#391-GR) (human) (UniProt P08069). The experiment is described as above.
Experiment [16] addresses rHuman ErbB2/Fc Chimera, CF (R&D Systems Cat#1129-ER) (human) (UniProt P04626). Described as above.
The target of experiment [17] is rHuman CD44/Fc Chimera, CF (R&D Systems Cat#3660-CD) (human) (UniProt P16070). The experiment is described as above.
Experiment [18] has as its target rHuman Erythropoietin R/Fc Chimera (human) (UniProt P19235). In words: ECL (MSD) multispot assay, antigen spotted; blank spot of this row 223.
Experiment [19] concerns the target rHuman CD44/Fc Chimera (human) (UniProt P16070). Described as above.
Experiment [20] has as its target rHuman HGF R/c-MET/Fc Chimera (human) (UniProt P08581). The experiment is described as above.
The target of experiment [21] is rHuman IGF-1 sR (insulin-like growth factor-1 soluble receptor) (human) (UniProt P08069). The description is as above.
The target in experiment [22] is rHuman Erythropoietin R/Fc Chimera (human) (UniProt P19235). In words: ECL (MSD) multispot assay, antigen spotted; blank spot of this row 236.
Experiment [23] concerns the target rHuman CD44/Fc Chimera (human) (UniProt P16070). Described as above.
For experiment [24], the target named is rHuman HGF R/c-MET/Fc Chimera (human) (UniProt P08581). The description is as above.
The target of experiment [25] is rHuman IGF-1 sR (insulin-like growth factor-1 soluble receptor) (human) (UniProt P08069). Described as above.
For experiment [26], the target named is rHuman Notch-1/Fc Chimera (human) (UniProt P46531). Described as above.
For experiment [27], the target named is Recombinant Human DLL4 (delta-like protein 4) (human) (UniProt Q9NR61). In words: ELISA, Fab on coated recombinant human DLL4, signal minus noise.
Experiment [28] has the same target. In words: ECL (MSD electrochemiluminescence) binding assay, Fab on immobilised recombinant human DLL4.

For the substance “Fab VH5-51_IGHD5-18*01>3_IGHJ4*01 G100K/G104T D55A & V3-4_IGLJ1*01”, the ECL signal in [1] turned out to be 683; in experiment [2], 729; in experiment [3], 310; in experiment [4] it was 856; in experiment [5], 898; in experiment [6], 1030. The substance also had an ECL signal in experiment [7] of 606.
As to “Fab VH5-51_IGHD5-18*01>3_IGHJ4*01 G100K/G104T D109A & V3-4_IGLJ1*01”, the ECL signal was 612 in experiment [8], 846 in [9] and 967 in experiment [10].
With “Fab VH5-51_IGHD5-18*01>3_IGHJ4*01 G100K/G104T P53A & V3-4_IGLJ1*01”, the ECL signal in experiment [11] was determined as 536; in experiment [12] it was 976; in experiment [13], 424; in experiment [14] it was 1000; in experiment [15], 943; in experiment [16] it was 1140. The ECL signal in experiment [17] came out at 556.
In the case of “Fab VH5-51_IGHD5-18*01>3_IGHJ4*01 G100K/G104T S84L & V3-4_IGLJ1*01”, the ECL signal in [18] worked out at 458; in [19] it was 545; in experiment [20], 933; in [21], 908.
On to “Fab VH5-51_IGHD5-18*01>3_IGHJ4*01 G100K/G104T S84V & V3-4_IGLJ1*01”, for which the ECL signal stood at 484 in experiment [22]; 577 in experiment [23]; 811 in [24]; 914 in experiment [25]; 505 in experiment [26].
On to “Fab VH5-51_IGHD5-18*01>3_IGHJ4*01 G100K/G104T T58D/K & V3-4_IGLJ1*01”, for which, in experiment [27], the ELISA (Signal-Noise) stood at 0.03. Moreover, in experiment [28], the ECL signal was determined as 823.
